The Km is the concentration of substrate that gives half-maximal velocity. As usually defined, the kcat is the maximal rate divided by the concentration of active sites.

The source of these data is US12258605B2, “Alkane oxidation by modified hydroxylases” (The California Institute of Technology, priority 2005, dated 2025).

Common to all, as to assay type: biochemical
The nature of data set [1]: Reactions on alkanes, total turnovers (Table 18): nonane. The settings on record: nonane (9 C atoms); for % rel. act.: TTN normalized to the highest value of the variant's series; for TTN: total turnovers, standardized reaction conditions. How it is done:
Reactions on alkanes. Reactions with alkanes from pentane to decane were carried out at 3 mL-scale using 100 mM KPi pH 8.0 buffer containing 2% ethanol (to allow alkane solubilization) and purified protein. 2.5 mL KPi buffer were added with 60 μL of 90 mM alkane solution in ethanol (final conc.=1.8 mM), 150 μL enzyme solution at 1 μM (final conc.=50 nM), and 300 μL NADPH regeneration solution (100 units/mL isocitrate dehydrogenase, 70 mg/mL isocitrate, 1.5 mg/ml NADP^+). Vials were sealed and stirred for 24 hours at 4° C. 1 mL-aliquot of the reaction was removed, added with 10 μl internal standard (25 mM 1-bromohexane in ethanol), and extracted with 200 μl chloroform (30 sec vortexing, 1 min centrifugation at 10000 g). The organic phase was removed and analyzed by gas chromatography. Reactions with ethane, propane, and butane were carried out as described for longer alkanes with the only difference that alkane-saturated KPi buffer was used. Propane reactions with variants from HL5 and L9 libraries were performed on 1 mL-scale reaction using 20 nM enzyme to reduce oxygen limitation. Propane and butane reactions were analyzed by direct injection of reaction solution on the GC using 1-pentanol as internal standard. Ethane reaction products were functionalized (see below) and analyzed by GC using 1-butanol as internal standard. All measurements were performed in triplicate.
(§1) Products from alkane reactions were identified and quantified by gas chromatography using authentic standards and calibration curves with internal standards. For the reactions with alkanes from pentane to decane, GC analyses were carried out using a Shimadzu GC-17A gas chromatograph, Agilent HP5 column (30 m×0.32 mm×0.1 μm film), 1 μL injection, FID detector, and the following separation program: 250° C. inlet, 250° C. detector, 50° C. oven for 3 min, 5° C./min gradient to 100° C., 25° C./min gradient to 230° C., and 230° C. for 3 min. For butane and propane (TTN) reactions, GC analyses were carried out using a Hewlett-Packard 5890 Series II Plus gas chromatograph, Supelco SPB-1 column (60 m×0.52 mm×0.5 μm film), 0.5 μL injection, FID detector, and the following separation program: 250° C. inlet, 275° C. detector, 80° C. oven for 2 min, 10° C./min gradient to 110° C., 25° C./min gradient to 275° C., and 275° C. for 2.5 min. For ethane and propane (rate) reactions, analysis of reaction mixtures was carried out by derivatization to alkyl nitrites followed by GC-ECD analysis. For laurate, reaction product analysis was carried out by derivatization with N-methyl-N-trimethylsilylheptafluorobutyramide followed by extraction with hexane. Organic solutions were analyzed by FID-GC.
TTNs for each variant-substrate pair were determined using standardized reaction conditions (identical enzyme and substrate concentration, incubation time, cofactor regeneration system) (Table 18). TTN values were used to assess performance because TTN is a cumulative measure of both catalytic and coupling efficiency and because mutants were selected based on improvement in this property. To facilitate comparison among the variants, TTNs were normalized to the highest value in the series (MTN=Maximal Turnover Number) and plotted for the increasing-sized substrates (FIG. 38). A gradual shift of the enzyme's substrate preference during laboratory evolution is evident from these profiles. The marginal activity of wild-type BM3 on these substrates (MTN=150) is restricted to the long-chain alkanes, where it is a promiscuous function of BM3's high C12-C20 fatty acid hydroxylase activity. In the first evolutionary intermediates, substrate preference centers on medium-chain alkanes […], reflecting their selection for activity on octane. In 35E11, selected for activity on propane, preference still centers on C6-C8 alkanes but now extends towards the shorter ones, including propane. Propane activity becomes prevalent with the transition from variant ETS8 to 19A12. […]

Data set [2] is described as follows: Kinetic constants for n-alkanes: octane. How it is done: (§2) Rate measurements. Initial rates of product formation were determined at 25° C. in 100 mM KPi pH 8.0 buffer using purified protein (100 nM) and a substrate concentration of 1.6 mM. In a 5 mL-vial, 20 μL of alkane solution (in ethanol) were dissolved in 400 μL KPi buffer, to which 500 μL enzyme solution at 100-200 nM was added. Reaction was initiated by adding 100 μL of 5 mM NADPH solution, followed by stirring at 300 rpm for 1 minute, and quenched by adding 200 μL chloroform and stirring at 800 rpm for 10 sec. Solutions were transferred to an Eppendorf tube, to which internal standard (10 μL 25 mM 1-bromohexane in ethanol) was added. Tubes were vortexed for 10 sec and centrifuged for 30 sec at 10,000 g. Organic phase was removed and analyzed by GC. For propane, reactions were carried out in a 5 mL-scale using 100-400 nM purified enzyme, propane-saturated buffer (propane concentration≈1.6 mM) and a final NADPH concentration of 500 μM. Reactions were stopped by addition of 200 μL H2SO4 conc. and analyzed by derivatization to alkyl nitrites followed by GC-ECD analysis as described below.
as §1
(§3) To further investigate the evolution of substrate specificity, kinetic constants for the C5 to C8 alkanes were determined from Michaelis-Menten plots (Table 19). The preference of 35E11 and its evolutionary predecessors for medium-chain alkanes is indicated by their high C8/C5 specificities ((kcat/Km)8/(kcat/Km)5˜100), where Km appears to be the major contributing factor. C8/C5 specificity decreases to ˜5 in the immediate precursors of P450PMO and then switches altogether to the smaller alkane, becoming 0.4 in P450PMO. In P450PMO, catalytic efficiency is highest on propane and decreases along the alkane series, driven by decreasing kcat.

Data set [3] can be described thus: Kinetic constants for n-alkanes: heptane. The note with it: N.m = not measurable. How it is done:
as §2, §1, §3

Positions count from the first letter of the chain named. Numbers in names are those of the source.

B1: Wild-type BM-3: wild-type cytochrome P450 BM-3 from Bacillus megaterium, SEQ ID NO:1 (protein, listed as Bacillus megaterium)
chain: TIKEMPQPKTFGELKNLPLLNTDKPVQALMKIADELGEIFKFEAPGRVTRYLSSQRLIKEACDESRFDKNLSQALKFVRDFAGDGLFTSWTHEKNWKKAHNILLPSFSQQAMKGYHAMMVDIAVQLVQKWERLNADEHIEVPEDMTRLTLDTIGLCGFNYRFNSFYRDQPHPFITSMVRALDEAMNKLQRANPDDPAYDENKRQFQEDIKVMNDLVDKIIADRKASGEQSDDLLTHMLNGKDPETGEPLDDENIRYQIITFLIAGHETTSGLLSFALYFLVKNPHVLQKAAEEAARVLVDPVPSYKQVKQLKYVGMVLNEALRLWPTAPAFSLYAKEDTVLGGEYPLEKGDELMVLIPQLHRDKTIWGDDVEEFRPERFENPSAIPQHAFKPFGNGQRACIGQQFALHEATLVLGMMLKHFDFEDHTNYELDIKETLTLKPEGFVVKAKSKKIPLGGIPSPSTEQSAKKVRKKAENAHNTPLLVLYGSNMGTAEGTARDLADIAMSKGFAPQVATLDSHAGNLPREGAVLIVTASYNGHPPDNAKQFVDWLDQASADEVKGVRYSVFGCGDKNWATTYQKVPAFIDETLAAKGAENIADRGEADASDDFEGTYEEWREHMWSDVAAYFNLDIENSEDNKSTLSLQFVDSAADMPLAKMHGAFSTNVVASKELQQPGSARSTRHLEIELPKEASYQEGDHLGVIPRNYEGIVNRVTARFGLDASQQIRLEAEEEKLAHLPLAKTVSVEELLQYVELQDPVTRTQLRAMAAKTVCPPHKVELEALLEKQAYKEQVLAKRLTMLELLEKYPACEMKFSEFIALLPSIRPRYYSISSSPRVDEKQASITVSVVSGEAWSGYGEYKGIASNYLAELQEGDTITCFISTPQSEFTLPKDPETPLIMVGPGTGVAPFRGFVQARKQLKEQGQSLGEAHLYFGCRSPHEDYLYQEELENAQSEGIITLHTAFSRMPNQPKTYVQHVMEQDGKKLIELLDQGAHFYICGDGSQMAPAVEATLMKSYADVHQVSEADARLWLQQLEEKGRYAKDVWAG
For B1, in data set [1], the “% rel. act.” value is on record as 68.8% and the TTN was determined as 110 ± 10. Further, in data set [2], the Michaelis-Menten constant (Km) was greater than 5000 µM and the turnover number (kcat) is less than 0.083 s⁻¹. In data set [3], the Michaelis constant (Km) entry was “n.m” and the kcat entry is listed as “n.m”.

B2: 35-E11: P450 BM-3 variant, SEQ ID NO:7: 53-5H substitutions plus E464G and I710T (protein)
chain: TIKEMPQPKTFGELKNLPLLNTDKPVQALMKIADELGEIFKFEAPGCVTRYLSSQRLIKEACDESRFDKNLSQALKFFRDFSGDGLFTSWTHEINWKKAHNILLPSFSQQAMKGYHAMMVDIAVQLVQKWERLNADEHIEVSEDMTRLTLDTIGLCGFNYRFNSFYRDQPHPFIISMVRALDEVMNKLQRANPDDPAYDENKRQCQEDIKVMNDLVDKIIADRKARGEQSDDLLTQMLNGKDPETGEPLDDGNISYQIITFLIAGHETTSGLLSFALYFLVKNPHVLQKVVEEAARVLVDPVPSYKQVKQLKYVGMVLNEALRLWPTFPAFSLYAKEDTVLGGEYPLEKGDEVMVLIPQLHRDKTIWGDDVEEFRPERFENPSAIPQHAFKPFGNGQRACIGQQFALHEATLVLGMMLKHFDFEDHTNYELDIKETLTLKPEGFVVKAKSKKIPLGGIPSPSTGQSAKKVRKKAENAHNTPLLVLYGSNMGTAEGTARDLADIAMSKGFAPQVATLDSHAGNLPREGAVLIVTASYNGHPPDNAKQFVDWLDQASADEVKGVRYSVFGCGDKNWATTYQKVPAFIDETLAAKGAENIADRGEADASDDFEGTYEEWREHMWSDVAAYFNLDIENSEDNKSTLSLQFVDSAADMPLAKMHGAFSTNVVASKELQQPGSARSTRHLEIELPKEASYQEGDHLGVIPRNYEGTVNRVTARFGLDASQQIRLEAEEEKLAHLPLAKTVSVEELLQYVELQDPVTRTQLRAMAAKTVCPPHKVELEALLEKQAYKEQVLAKRLTMLELLEKYPACEMKFSEFIALLPSIRPRYYSISSSPRVDEKQASITVSVVSGEAWSGYGEYKGIASNYLAELQEGDTITCFISTPQSEFTLPKDPETPLIMVGPGTGVAPFRGFVQARKQLKEQGQSLGEAHLYFGCRSPHEDYLYQEELENAQSEGIITLHTAFSRMPNQPKTYVQHVMEQDGKKLIELLDQGAHFYICGDGSQMAPAVEATLMKSYADVHQVSEADARLWLQQLEEKGRYAKDVWAG
modifications: mutant P450 35-E11 protein sequence
B2: in data set [1], the “% rel. act.” value is listed as 52.6% and the TTN turned out to be 3350 ± 133. In data set [2], the Km is 85 ± 25 µM and the kcat amounted to 6.5 ± 1.58 s⁻¹. Moreover, the kcat in data set [3] was found to be 10.6 ± 1.38 s⁻¹. Further, in data set [3] (read-out: Km), the Michaelis constant (Km) came to 200 ± 46 µM.

B3: P450PMO: P450 BM-3 variant, SEQ ID NO:125; 7-7 plus G443A and D698G; propane monooxygenase (protein)
chain: B2 chain with L52I, A74E, S82G, L188P, I366V, G443A, D698G
modifications: Mutant P450PMO protein sequence
notes: 7-7 plus G443A and D698G; propane monooxygenase
Consider B3, for which the “% rel. act.” value in data set [1] was 11.7%. The TTN in data set [1] is reported as 2390 ± 30. Moreover, the Michaelis constant (Km) in data set [2] was 185 ± 40 µM; in data set [3] (read-out: Km), 190 ± 40 µM. Further, the values for the catalytic constant (kcat) in data set [2] and in data set [3] were 0.217 ± 0.067 s⁻¹ and 0.533 ± 0.083 s⁻¹, respectively.
